Measurements from patent publication US20230227537A1.

Molecular target: recombinant prefusion stabilized SARS-CoV-2-2P spike protein (SARS-CoV-2) (UniProt P0DTC2)

“D72-15: VHH72-GS-hIgG1hinge-hIgG1Fc-L234A-L235A-P329G (Fc fusion)” was tested, and the EC50 was 0.014 µg/mL.
